System: Escherichia coli TOP10
Test: shrunken log2 fold change of peptide-encoding DNA abundance (4.5 h post-induction vs induction); higher = less antimicrobial activity (less host growth inhibition)
Conditions: time post-induction: 4.5 h; library: site-saturation at positions 5, 18, 19, 20
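Further: peptides expressed intracellularly from a pBAD plasmid library in pooled LB shake-flask culture, induced with 0.3% L-arabinose, DNA abundance read by NGS, three biological replicates, DESeq2 with apeglm shrinkage.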

Sequence	shrunken log2 fold change
RRIRCRPPRLPRPRPRPKPKPRP	0.407
RRIRTRPPRLPRPRPRPPVEPRP	0.0458
RRIRERPPRLPRPRPRPKMCPRP	-0.149
RRIRYRPPRLPRPRPRPHRGPRP	-0.192
RRIRLRPPRLPRPRPRPYDVPRP	-0.366
RRIRQRPPRLPRPRPRPVCQPRP	-0.0856
RRIRSRPPRLPRPRPRPALRPRP	0.169
RRIRARPPRLPRPRPRPEVEPRP	1.3
RRIRFRPPRLPRPRPRPEVQPRP	0.00737
RRIRQRPPRLPRPRPRPTTCPRP	0.106
RRIRVRPPRLPRPRPRPWPQPRP	0.104
RRIRQRPPRLPRPRPRPKSGPRP	0.631
RRIRARPPRLPRPRPRPKLFPRP	0.233
RRIRERPPRLPRPRPRPSAGPRP	-0.118
RRIRKRPPRLPRPRPRPKQQPRP	0.0737
RRIRVRPPRLPRPRPRPWLVPRP	0.128
RRIRPRPPRLPRPRPRPDLSPRP	0.158
RRIRSRPPRLPRPRPRPHRQPRP	0.114
RRIRNRPPRLPRPRPRPGSGPRP	0.179
RRIRVRPPRLPRPRPRPSSMPRP	-0.157
RRIRYRPPRLPRPRPRPRSGPRP	-0.0667
RRIRNRPPRLPRPRPRPCPSPRP	-0.0371
RRIRDRPPRLPRPRPRPGLKPRP	-0.0696
RRIRLRPPRLPRPRPRPKFHPRP	-0.174
RRIRCRPPRLPRPRPRPEIGPRP	-0.237

Sequence	shrunken log2 fold change
RRIRKRPPRLPRPRPRPPSCPRP	1.71
RRIRERPPRLPRPRPRPMNFPRP	-0.192
RRIRKRPPRLPRPRPRPNTKPRP	-0.391
RRIRNRPPRLPRPRPRPELHPRP	0.102
RRIRHRPPRLPRPRPRPIGSPRP	-0.0183
RRIRTRPPRLPRPRPRPQIDPRP	-0.269
RRIRERPPRLPRPRPRPELSPRP	0.314
RRIRHRPPRLPRPRPRPGLFPRP	-0.0985
RRIRQRPPRLPRPRPRPTCDPRP	-0.116
RRIRFRPPRLPRPRPRPVQVPRP	-0.416
RRIRPRPPRLPRPRPRPDRTPRP	-0.25
RRIRARPPRLPRPRPRPKQGPRP	0.373
RRIRSRPPRLPRPRPRPFQRPRP	0.101
RRIRIRPPRLPRPRPRPKREPRP	0.0342
RRIRMRPPRLPRPRPRPRCIPRP	-0.0309
RRIRSRPPRLPRPRPRPSFQPRP	-0.282
RRIRHRPPRLPRPRPRPQTQPRP	-0.145
RRIRKRPPRLPRPRPRPFPPPRP	0.33
RRIRMRPPRLPRPRPRPVAPPRP	0.945
RRIRYRPPRLPRPRPRPRIWPRP	-0.0174
RRIRHRPPRLPRPRPRPIMEPRP	-0.545
RRIRRRPPRLPRPRPRPKAKPRP	0.0788
RRIRRRPPRLPRPRPRPVHVPRP	0.0562
RRIRVRPPRLPRPRPRPEKRPRP	-0.218
RRIRRRPPRLPRPRPRPCRMPRP	0.0963

Sequence	shrunken log2 fold change
RRIRCRPPRLPRPRPRPVTVPRP	-0.484
RRIRFRPPRLPRPRPRPSFLPRP	-0.572
RRIRYRPPRLPRPRPRPHNKPRP	-0.718
RRIRIRPPRLPRPRPRPNKHPRP	-0.727
RRIRDRPPRLPRPRPRPHIAPRP	0.0931
RRIRRRPPRLPRPRPRPMAAPRP	1.15
RRIRFRPPRLPRPRPRPWSTPRP	-0.0601
RRIRDRPPRLPRPRPRPRIDPRP	0.0784
RRIRGRPPRLPRPRPRPTTLPRP	0.507
RRIRRRPPRLPRPRPRPSYQPRP	-0.141
RRIRMRPPRLPRPRPRPDWSPRP	-0.0229
RRIRNRPPRLPRPRPRPGYYPRP	-0.851
RRIRARPPRLPRPRPRPYINPRP	-0.413
RRIRMRPPRLPRPRPRPLSLPRP	0.0457
RRIRKRPPRLPRPRPRPCCRPRP	0.146
RRIRRRPPRLPRPRPRPYWPPRP	-0.377
RRIRPRPPRLPRPRPRPPEAPRP	0.0126
RRIRCRPPRLPRPRPRPSNPPRP	0.442
RRIRYRPPRLPRPRPRPNGMPRP	-0.0465
RRIRLRPPRLPRPRPRPKSVPRP	0.0155
RRIRMRPPRLPRPRPRPLVSPRP	0.162
RRIRHRPPRLPRPRPRPSSFPRP	0.0395
RRIRIRPPRLPRPRPRPDHHPRP	-1.37
RRIRQRPPRLPRPRPRPFMMPRP	-0.25
RRIRVRPPRLPRPRPRPHLYPRP	-0.309

Sequence	shrunken log2 fold change
RRIRKRPPRLPRPRPRPCVQPRP	-0.038
RRIRDRPPRLPRPRPRPKCNPRP	-0.13
RRIRGRPPRLPRPRPRPNCQPRP	0.458
RRIRNRPPRLPRPRPRPMTSPRP	-0.0113
RRIRQRPPRLPRPRPRPSIFPRP	-0.635
RRIRWRPPRLPRPRPRPGREPRP	0.412
RRIRTRPPRLPRPRPRPAWWPRP	0.615
RRIRIRPPRLPRPRPRPKKEPRP	-0.438
RRIRSRPPRLPRPRPRPECAPRP	0.784
RRIRRRPPRLPRPRPRPHNKPRP	-0.276
RRIRFRPPRLPRPRPRPQRDPRP	0.218
RRIRFRPPRLPRPRPRPTQGPRP	0.215
RRIRKRPPRLPRPRPRPFELPRP	-0.000946
RRIRLRPPRLPRPRPRPRMSPRP	-1
RRIRTRPPRLPRPRPRPQALPRP	0.231
RRIRNRPPRLPRPRPRPSNPPRP	0.0568
RRIRNRPPRLPRPRPRPHYLPRP	-0.218
RRIRVRPPRLPRPRPRPTQCPRP	-0.0227
RRIRLRPPRLPRPRPRPHPAPRP	0.12
RRIRGRPPRLPRPRPRPRMFPRP	0.837
RRIRNRPPRLPRPRPRPQRAPRP	0.0993
RRIRERPPRLPRPRPRPGVVPRP	-0.0414
RRIRHRPPRLPRPRPRPNDWPRP	0.339
RRIRARPPRLPRPRPRPVLWPRP	2.26
RRIRKRPPRLPRPRPRPKMRPRP	0.56

Sequence	shrunken log2 fold change
RRIRRRPPRLPRPRPRPIIHPRP	-0.584
RRIRTRPPRLPRPRPRPHPCPRP	-0.339
RRIRDRPPRLPRPRPRPELRPRP	0.621
RRIRWRPPRLPRPRPRPTPRPRP	0.851
RRIRWRPPRLPRPRPRPPLYPRP	0.188
RRIRERPPRLPRPRPRPKVSPRP	-0.205
RRIRYRPPRLPRPRPRPRIGPRP	-0.471
RRIRGRPPRLPRPRPRPYQIPRP	-0.118
RRIRQRPPRLPRPRPRPWYAPRP	-0.134
RRIRHRPPRLPRPRPRPMSRPRP	-0.0252
RRIRLRPPRLPRPRPRPRMQPRP	-0.0604
RRIRVRPPRLPRPRPRPSYIPRP	-0.74
RRIRNRPPRLPRPRPRPDETPRP	-0.00208
RRIRDRPPRLPRPRPRPVNHPRP	-0.514
RRIRKRPPRLPRPRPRPCGYPRP	0.25
RRIRGRPPRLPRPRPRPYINPRP	-0.151
RRIRSRPPRLPRPRPRPWTQPRP	0.149
RRIRARPPRLPRPRPRPRNAPRP	0.485
RRIRCRPPRLPRPRPRPTICPRP	-0.142
RRIRMRPPRLPRPRPRPHDQPRP	0.351
RRIRMRPPRLPRPRPRPTKDPRP	0.277
RRIRERPPRLPRPRPRPASAPRP	0.33
RRIRHRPPRLPRPRPRPCCWPRP	0.015
RRIRMRPPRLPRPRPRPVREPRP	1.19
RRIRARPPRLPRPRPRPWHMPRP	-0.361

Sequence	shrunken log2 fold change
RRIRQRPPRLPRPRPRPQPPPRP	0.194
RRIRYRPPRLPRPRPRPHVPPRP	-0.277
RRIRGRPPRLPRPRPRPTDYPRP	-0.00915
RRIRLRPPRLPRPRPRPWNFPRP	-0.0899
RRIRQRPPRLPRPRPRPRQVPRP	0.302
RRIRIRPPRLPRPRPRPNHSPRP	-0.639
RRIRSRPPRLPRPRPRPWADPRP	-0.307
RRIRSRPPRLPRPRPRPHQVPRP	-0.0813
RRIRQRPPRLPRPRPRPEVCPRP	0.134
RRIRARPPRLPRPRPRPPAAPRP	1.12
RRIRRRPPRLPRPRPRPLPRPRP	0.748
RRIRHRPPRLPRPRPRPVHEPRP	-0.0609
RRIRIRPPRLPRPRPRPKHDPRP	-0.463
RRIRGRPPRLPRPRPRPLKRPRP	0.216
RRIRKRPPRLPRPRPRPVFDPRP	0.171
RRIRNRPPRLPRPRPRPIWDPRP	-0.14
RRIRCRPPRLPRPRPRPEWMPRP	-0.0041
RRIRMRPPRLPRPRPRPLECPRP	-0.0215
RRIRPRPPRLPRPRPRPHQSPRP	0.238
RRIRDRPPRLPRPRPRPAHPPRP	-0.203
RRIRLRPPRLPRPRPRPWFLPRP	-0.449
RRIRCRPPRLPRPRPRPTQQPRP	-0.0719
RRIRARPPRLPRPRPRPNWNPRP	-0.0314
RRIRSRPPRLPRPRPRPTIWPRP	0.393
RRIRARPPRLPRPRPRPAPHPRP	0.814

From the supplement of paper PMC9112550, “Optimization of the antimicrobial peptide Bac7 by deep mutational scanning” (BMC Biology, 2022)
